Laboratory results as given in patent US20230143604A1, “QW DOSING OF GIP RECEPTOR AGONIST PEPTIDE COMPOUNDS AND USES THEREOF” (TAKEDA PHARMACEUTICAL COMPANY LIMITED, priority 2020, published 2023).
Starred links: 1 amine or outer side, 2 acyl side, 3 side chain; linkers in the order of their positions; H or OH if unused. Non-standard residues stand in square brackets, D forms with d. Groups on a side chain read outwards from the residue. No end group written: not given here. *: point of attachment. C17 diacid = O=C(O)CCCCCCCCCCCCCCCC(=O)*; γGlu = O=C(O)[C@H](CCC(=O)[*:2])N[*:1]; NMeY = CN[C@@H](Cc1ccc(O)cc1)C(=O)O; AEEA = NCCOCCOCC(=O)O; Aib = CC(C)(N)C(=O)O

Tests used:
[1] = target: full-length human GLP-1R with an N-terminal FLAG tag (human, UniProt P43220 24-463); test: cell-based or functional assay
[2] = target: T1, full-length human GIPR with an N-terminal FLAG tag (human, UniProt P48546 22-466); test: cell-based or functional assay
T1 sequence (looked up): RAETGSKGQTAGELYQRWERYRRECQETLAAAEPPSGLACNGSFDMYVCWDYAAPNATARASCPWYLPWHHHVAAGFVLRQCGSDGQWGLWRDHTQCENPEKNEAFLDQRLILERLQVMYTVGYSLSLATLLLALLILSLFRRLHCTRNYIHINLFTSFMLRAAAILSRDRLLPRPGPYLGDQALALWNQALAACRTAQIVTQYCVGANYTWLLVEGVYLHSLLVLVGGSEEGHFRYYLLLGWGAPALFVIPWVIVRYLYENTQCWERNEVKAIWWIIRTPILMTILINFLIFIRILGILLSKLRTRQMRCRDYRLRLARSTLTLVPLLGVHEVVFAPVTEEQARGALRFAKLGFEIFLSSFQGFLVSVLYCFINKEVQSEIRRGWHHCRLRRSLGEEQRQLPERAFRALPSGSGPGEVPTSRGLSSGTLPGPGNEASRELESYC

Binder | Human GLP1R cAMP EC50, HEK293T [1] | Human GIPR cAMP EC50, HEK293T [2]
H-Y[Aib]EGTFISDYSI[Aib]LDKIAQQK([AEEA-AEEA-γGlu-γGlu-C17 diacid])FVEWLLAQRG-OH (SMILES CC[C@H](C)[C@H](NC(=O)[C@H](CCCCN)NC(=O)[C@H](CC(=O)O)NC(=O)[C@H](CC(C)C)NC(=O)C(C)(C)NC(=O)[C@@H](NC(=O)[C@H](CO)NC(=O)[C@H](Cc1ccc(O)cc1)NC(=O)[C@H](CC(=O)O)NC(=O)[C@H](CO)NC(=O)[C@@H](NC(=O)[C@H](Cc1ccccc1)NC(=O)[C@@H](NC(=O)CNC(=O)[C@H](CCC(=O)O)NC(=O)C(C)(C)NC(=O)[C@@H](N)Cc1ccc(O)cc1)[C@@H](C)O)[C@@H](C)CC)[C@@H](C)CC)C(=O)N[C@@H](C)C(=O)N[C@@H](CCC(N)=O)C(=O)N[C@@H](CCC(N)=O)C(=O)N[C@@H](CCCCNC(=O)COCCOCCNC(=O)COCCOCCNC(=O)CC[C@H](NC(=O)CC[C@H](NC(=O)CCCCCCCCCCCCCCCC(=O)O)C(=O)O)C(=O)O)C(=O)N[C@@H](Cc1ccccc1)C(=O)N[C@H](C(=O)N[C@@H](CCC(=O)O)C(=O)N[C@@H](Cc1c[nH]c2ccccc12)C(=O)N[C@@H](CC(C)C)C(=O)N[C@@H](CC(C)C)C(=O)N[C@@H](C)C(=O)N[C@@H](CCC(N)=O)C(=O)N[C@@H](CCCNC(=N)N)C(=O)NCC(=O)O)C(C)C) [Compound No. 129] | 115 nM | 0.0004 nM
[NMeY][Aib]EGTFISDYSI[Aib]LDR[Aib]AQ[Aib]K([AEEA-AEEA-γGlu-γGlu-C17 diacid])FVNWLLAQRG-OH (N-terminus assumed; SMILES CC[C@H](C)[C@H](NC(=O)[C@H](Cc1ccccc1)NC(=O)[C@@H](NC(=O)CNC(=O)[C@H](CCC(=O)O)NC(=O)C(C)(C)NC(=O)[C@H](Cc1ccc(O)cc1)NC)[C@@H](C)O)C(=O)N[C@@H](CO)C(=O)N[C@@H](CC(=O)O)C(=O)N[C@@H](Cc1ccc(O)cc1)C(=O)N[C@@H](CO)C(=O)N[C@H](C(=O)NC(C)(C)C(=O)N[C@@H](CC(C)C)C(=O)N[C@@H](CC(=O)O)C(=O)N[C@@H](CCCNC(=N)N)C(=O)NC(C)(C)C(=O)N[C@@H](C)C(=O)N[C@@H](CCC(N)=O)C(=O)NC(C)(C)C(=O)N[C@@H](CCCCNC(=O)COCCOCCNC(=O)COCCOCCNC(=O)CC[C@H](NC(=O)CC[C@H](NC(=O)CCCCCCCCCCCCCCCC(=O)O)C(=O)O)C(=O)O)C(=O)N[C@@H](Cc1ccccc1)C(=O)N[C@H](C(=O)N[C@@H](CC(N)=O)C(=O)N[C@@H](Cc1c[nH]c2ccccc12)C(=O)N[C@@H](CC(C)C)C(=O)N[C@@H](CC(C)C)C(=O)N[C@@H](C)C(=O)N[C@@H](CCC(N)=O)C(=O)N[C@@H](CCCNC(=N)N)C(=O)NCC(=O)O)C(C)C)[C@@H](C)CC) [Compound No. 127] | 63.1 nM | 0.0007 nM
[NMeY][Aib]EGTFISDYSIAK([γGlu-γGlu-γGlu-C17 diacid])DR[Aib]AQ[Aib]NFVNWLLAQSPSSGAPPPS-NH2 [Compound No. 12] | 955 nM | 0.0002 nM
H-Y[Aib]EGTFISDYSIALDK[Aib]AQAK([AEEA-AEEA-γGlu-γGlu-C17 diacid])FVEWLLAQRG-OH (SMILES CC[C@H](C)[C@H](NC(=O)[C@H](CO)NC(=O)[C@H](Cc1ccc(O)cc1)NC(=O)[C@H](CC(=O)O)NC(=O)[C@H](CO)NC(=O)[C@@H](NC(=O)[C@H](Cc1ccccc1)NC(=O)[C@@H](NC(=O)CNC(=O)[C@H](CCC(=O)O)NC(=O)C(C)(C)NC(=O)[C@@H](N)Cc1ccc(O)cc1)[C@@H](C)O)[C@@H](C)CC)C(=O)N[C@@H](C)C(=O)N[C@@H](CC(C)C)C(=O)N[C@@H](CC(=O)O)C(=O)N[C@@H](CCCCN)C(=O)NC(C)(C)C(=O)N[C@@H](C)C(=O)N[C@@H](CCC(N)=O)C(=O)N[C@@H](C)C(=O)N[C@@H](CCCCNC(=O)COCCOCCNC(=O)COCCOCCNC(=O)CC[C@H](NC(=O)CC[C@H](NC(=O)CCCCCCCCCCCCCCCC(=O)O)C(=O)O)C(=O)O)C(=O)N[C@@H](Cc1ccccc1)C(=O)N[C@H](C(=O)N[C@@H](CCC(=O)O)C(=O)N[C@@H](Cc1c[nH]c2ccccc12)C(=O)N[C@@H](CC(C)C)C(=O)N[C@@H](CC(C)C)C(=O)N[C@@H](C)C(=O)N[C@@H](CCC(N)=O)C(=O)N[C@@H](CCCNC(=N)N)C(=O)NCC(=O)O)C(C)C) [Compound No. 131] | 151 nM | 0.0004 nM
H-Y[Aib]EGTFISDYSIALDK[Aib]AQQK([AEEA-AEEA-γGlu-γGlu-C17 diacid])FVEWLLAQRG-OH (SMILES CC[C@H](C)[C@H](NC(=O)[C@H](CO)NC(=O)[C@H](Cc1ccc(O)cc1)NC(=O)[C@H](CC(=O)O)NC(=O)[C@H](CO)NC(=O)[C@@H](NC(=O)[C@H](Cc1ccccc1)NC(=O)[C@@H](NC(=O)CNC(=O)[C@H](CCC(=O)O)NC(=O)C(C)(C)NC(=O)[C@@H](N)Cc1ccc(O)cc1)[C@@H](C)O)[C@@H](C)CC)C(=O)N[C@@H](C)C(=O)N[C@@H](CC(C)C)C(=O)N[C@@H](CC(=O)O)C(=O)N[C@@H](CCCCN)C(=O)NC(C)(C)C(=O)N[C@@H](C)C(=O)N[C@@H](CCC(N)=O)C(=O)N[C@@H](CCC(N)=O)C(=O)N[C@@H](CCCCNC(=O)COCCOCCNC(=O)COCCOCCNC(=O)CC[C@H](NC(=O)CC[C@H](NC(=O)CCCCCCCCCCCCCCCC(=O)O)C(=O)O)C(=O)O)C(=O)N[C@@H](Cc1ccccc1)C(=O)N[C@H](C(=O)N[C@@H](CCC(=O)O)C(=O)N[C@@H](Cc1c[nH]c2ccccc12)C(=O)N[C@@H](CC(C)C)C(=O)N[C@@H](CC(C)C)C(=O)N[C@@H](C)C(=O)N[C@@H](CCC(N)=O)C(=O)N[C@@H](CCCNC(=N)N)C(=O)NCC(=O)O)C(C)C) [Compound No. 130] | 95.5 nM | 0.0003 nM
H-Y[Aib]EGTFISDYSIALDKIAQQK([AEEA-AEEA-γGlu-γGlu-C17 diacid])FVEWLLAQRPSSGAPPPS-OH [Compound No. 134] | 170 nM | 0.0006 nM
YXEGTFISDYSIAXDRXAQXDFVNWLLAQSPG (N-terminus H; Aib at 2,17,20; Lys(G5-C18 diacid) at 14; C-terminal OH) [Compound No. 128] | 7.24 nM | 0.0009 nM
[NMeY][Aib]EGTFISDYSI[Aib]LDR[Aib]AQ[Aib]K([AEEA-AEEA-γGlu-γGlu-C17 diacid])FVNWLLAQSPG-OH (N-terminus assumed; SMILES CC[C@H](C)[C@H](NC(=O)[C@H](Cc1ccccc1)NC(=O)[C@@H](NC(=O)CNC(=O)[C@H](CCC(=O)O)NC(=O)C(C)(C)NC(=O)[C@H](Cc1ccc(O)cc1)NC)[C@@H](C)O)C(=O)N[C@@H](CO)C(=O)N[C@@H](CC(=O)O)C(=O)N[C@@H](Cc1ccc(O)cc1)C(=O)N[C@@H](CO)C(=O)N[C@H](C(=O)NC(C)(C)C(=O)N[C@@H](CC(C)C)C(=O)N[C@@H](CC(=O)O)C(=O)N[C@@H](CCCNC(=N)N)C(=O)NC(C)(C)C(=O)N[C@@H](C)C(=O)N[C@@H](CCC(N)=O)C(=O)NC(C)(C)C(=O)N[C@@H](CCCCNC(=O)COCCOCCNC(=O)COCCOCCNC(=O)CC[C@H](NC(=O)CC[C@H](NC(=O)CCCCCCCCCCCCCCCC(=O)O)C(=O)O)C(=O)O)C(=O)N[C@@H](Cc1ccccc1)C(=O)N[C@H](C(=O)N[C@@H](CC(N)=O)C(=O)N[C@@H](Cc1c[nH]c2ccccc12)C(=O)N[C@@H](CC(C)C)C(=O)N[C@@H](CC(C)C)C(=O)N[C@@H](C)C(=O)N[C@@H](CCC(N)=O)C(=O)N[C@@H](CO)C(=O)N1CCC[C@H]1C(=O)NCC(=O)O)C(C)C)[C@@H](C)CC) [Compound No. 126] | 30.9 nM | 0.0004 nM
H-Y[Aib]EGTFISDYSIALDKIAQRK([AEEA-AEEA-γGlu-γGlu-C17 diacid])FVEWLLAQRPSSGAPPPS-OH [Compound No. 135] | 8.32 nM | 0.0007 nM
H-Y[Aib]EGTFISDYSIALDKIAQ[Aib]K([AEEA-AEEA-γGlu-γGlu-C17 diacid])FVEWLLAQRG-OH [Compound No. 132] | 66.1 nM | 0.0009 nM
H-Y[Aib]EGTFISDYSIALDKAAQ[Aib]K([AEEA-AEEA-γGlu-γGlu-C17 diacid])FVEWLLAQRG-OH [Compound No. 133] | 58.9 nM | 0.0012 nM
